Data published in the supplement of paper PMC10567573.

B1: DLC1 (parent)
chain: NDDSADYQHFLQDCVDGLFKEVKE
B2: TRIM29 (parent)
chain: FAEKGELRKSIFSESRKPTVSIME

Variants of: B1
Assay: protein stability index of a GFP-peptide fusion (GPS, HEK-293T) (PSI 1-6); higher = more stable
Conditions: c terminus: a fixed tail appended
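Note: lentivirally expressed fusions sorted by FACS into six bins by GFP to DsRed ratio, PSI derived from sequencing read proportions per bin multiplied by bin number.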

Protein stability index of substitutions, site by site:
Y7: L 3.03 | R 4.1 | F 2.05 | I 1.75 | A 3.78 | H 4.36
N1: E 3 | T 2.6 | M 1.79 | D 1.72 | Y 2.73 | K 3.44
K20: F 2.93 | N 3.08 | P 4.86 | V 3.56 | M 2.68
C14: A 2.33 | K 4.78
S4: F 2.26 | L 2.91 | A 2.35
E24: H 1.88 | D 2.33 | P 4.54 | R 2.01
V15: E 4.9 | P 4.6 | L 3.34 | W 3.8 | K 4.71
D6: A 2.32 | N 2.4 | V 2.24 | H 3.3 | R 2.94 | F 2.81
D3: R 1.79 | M 2.26 | S 2.4
F10: Y 2.75 | E 3.75 | Q 3.16 | C 2.66 | T 2.47 | H 4.34 | N 4.56
G17: M 2.18 | F 2.12 | P 4.92 | I 2.19 | K 2.73 | R 2.01 | A 3.68
E21: M 2.24 | L 1.67 | G 3.51 | D 4.67 | Q 2.74 | H 2.42 | A 2.29
A5: P 2.4 | H 2.55 | F 1.68 | W 2.1 | D 2.42 | Y 2.17 | C 2.05 | S 1.91
D13: G 2.42 | C 2.09 | Q 2.24
V22: G 5.01 | Q 4.37 | L 3.32
Q12: Y 3.71 | K 2.33 | V 3.33 | M 3.73 | L 3.31
H9: M 2.74 | N 3.02 | F 2.32 | Q 2.23 | L 2.21
D16: T 3.28 | W 1.8 | A 2.08 | L 2.12 | F 2.34 | I 1.49
F19: E 4.54 | M 3.72
K23: F 2.83 | Y 2.35 | P 4.57 | G 4.37 | T 1.65
L18: A 5.02 | F 3.33 | G 5.6
L11: H 5.08 | P 4.51 | S 5.1
Q8: A 2.4 | I 2.26 | S 2.88 | F 2.65 | M 1.43 | W 3.5 | G 2.75 | N 3.03 | Y 1.56
D2: Y 1.2 | G 4.54 | T 2.65

Variants of: B2
Assay: as above
Conditions: c terminus: a fixed tail appended

Protein stability index of substitutions, site by site:
S15: R 1.3 | E 2.01 | N 1.64 | Y 2.04 | M 2.04 | G 1.8 | I 1.56 | L 1.96 | C 1.59 | T 2.31 | H 1.52 | K 2 | P 2.71 | V 2.3 | W 2.29 | D 2.26 | F 2.3 | A 1.75 | Q 2.1
P18: F 2.31 | D 2.32 | K 1.41 | V 2.5 | R 2.32 | E 2.35 | I 2.06 | W 2.83 | M 2.1 | N 2.59 | L 1.98 | G 2.59 | C 2.21 | Q 1.34 | A 2.01 | T 1.85 | Y 2.79 | H 1.94 | S 1.46
T19: K 2.58 | D 2.15 | E 1.8 | Q 2.26 | W 2.94 | A 3 | H 1.75 | V 2.56 | N 1.72 | M 2.36 | I 1.17 | F 1.59 | G 1.61 | P 2.39 | Y 2 | S 2.74 | L 1.6 | R 2.02 | C 2.39
S21: C 1.49 | Q 3.18 | W 2.55 | I 3.09 | M 2.61 | K 2.7 | P 1.47 | G 1.95 | T 1.76 | H 1.31 | R 2.19 | L 2.05 | E 1.76 | V 2.17 | D 1.65 | A 2.12 | N 2.11 | Y 2.15 | F 2.61
E24: N 1.36 | Q 1.95 | R 1.3 | K 1.76 | A 2.12 | T 1.88 | P 2.23 | W 2.17 | S 1.65 | I 2.79 | V 2.33 | D 2.41 | H 3.14 | M 2.73 | Y 2.54 | L 2.98 | F 2.22 | G 2.2 | C 2.07
M23: D 1.92 | E 1.56 | Q 2.47 | W 2.21 | V 2.01 | A 1.47 | G 1.57 | N 2.38 | H 2.56 | F 1.6 | K 1.66 | R 2.22 | P 1.84 | S 1.58 | L 1.71 | T 2.22 | Y 2.2 | I 1.49 | C 2.16
I22: M 1.49 | S 1.78 | N 1.74 | C 2.68 | G 1.85 | F 1.79 | L 2.17 | R 1.34 | H 3.02 | W 1.67 | Q 1.55 | T 2.04 | E 2.06 | V 1.86 | K 2.31 | P 2.48 | Y 1.38 | A 2 | D 1.99
E14: H 2.05 | P 3.31 | K 1.99 | L 1.91 | Q 1.54 | S 2.31 | D 1.54 | I 2.32 | C 2.21 | R 1.49 | M 1.59 | F 1.85 | Y 1.7 | A 2.01 | V 2.05 | N 1.95 | T 2.63 | G 1.78 | W 1.76
K17: N 1.39 | T 2.12 | G 1.99 | H 2.11 | E 1.67 | F 2.05 | I 2 | L 2.86 | C 1.28 | V 2.46 | M 1.33 | P 1.54 | Q 1.68 | A 2.43 | Y 2.23 | R 1.53 | D 1.65 | W 2.22 | S 1.82
S13: V 2.58 | R 2.19 | Y 2.08 | N 1.75 | P 3.18 | W 2.55 | T 1.87 | Q 1.75 | M 2.76
V20: S 2.34 | Q 2.2 | T 1.77 | P 1.89 | N 1.27 | M 1.92 | L 1.23 | F 1.97 | D 2.02 | K 2.08 | H 2.64 | E 2.79 | I 2.12 | Y 1.67 | G 1.7 | W 2.58 | C 2.13 | R 1.68 | A 1.42
R16: Q 1.6 | H 1.74 | F 1.96 | V 2.18 | C 1.69 | W 2.29 | I 1.78 | S 1.8 | Y 1.4 | M 2.02 | E 1.3 | L 1.99 | N 1.5 | K 2.35 | A 1.49 | P 1.96 | T 1.6 | D 2.04 | G 1.99
